According to patent publication US20240376185A1:

B1: SVG23 (VHH, not shown: large carriers)
VHH: QVQLQESGGGLVQAGGSLRLSCAASGRAFGSYTMNWFRQAPGKERDFVAGIMSSGMNTWYADSVKGRFTISRDNAKNTVYLQMNSLKPEDTAVYYCASRPRSTMTSGRYLYDYWGQGTQVTVSS
B2: SVG24 (VHH, not shown: large carriers)
VHH: QVQLQQSGGGLVQAGGSLRLSCAASGRTFSTYNIAWFRQAPGKEREFVTAITWGSGNTYYADSVKGRFTISRDNAKNTVFLQMNSLKPDDTAVYYCAARRSLGPTMAFAYEYWGQGTQVTVSS
B3: SVG03 (VHH, not shown: large carriers)
VHH: QVQLQESGGGLVQAGGSLRLSCAASGRTFSNYVMGWFRQAPGKEREFVSAISWNGVSTFYADSVKGRFTISRDNAKNTVYLQMNSLKPEDTAVYYCAADERFVVRYNYWGQGTQVTVSS
B4: SVG07 (VHH, not shown: large carriers)
VHH: QVQLQESGPGLVKPSQTLSLTCTVSGGSITTTAYAWSWIRQPPGKGLEWMGAIRFDGTTDYSPSLKSRISISRDTSNNQFSLRMSSVTPEDTAVYYCARYGVVSDHGGLDYWGQGTQVTVSS
B5: SVA04 (VHH, not shown: large carriers)
VHH: QVQLQQSGGGLVQAGGSLRLACAASGRTLSSYVMGWFRQAPGKEREFVAAISWSGGSTYYADSVKGRFTISRDNAKNTVYLQMNSLKPEDTAVYYCAATLRGSNRYYSGRVYDYWGQGTQVTVSS
B6: SVA12 (VHH)
VHH: QVQLQESGGRLVQAEDSLRLSCAASGRTFVSYDMGWFRQAPGKEREFVAAINWRGYTTDYVDSVKGRFFISRDIAKSTVYLQMNNLKPEDTAVYYCAARQMSGSSRYSPPGRVGYDFWGQGTQVTVSS
B7: SVG13 (VHH)
VHH: QVQLQESGGGLVQPGGSLRLSCEASGFTFDDYGMSWVRQAPGKGLEWVSSLTPNGGSTYYADSVKGRFTISRDNAKNTLYLQMNSLKPEDTALYYCAKNSYYGAMDYWGKGTLVTVSS
B8: SVG18 (VHH, not shown: large carriers)
VHH: QVQLQQSGGGLVQPGGSLRLSCAASGFTFSSYAMSWVRQAPGKGLEWVSAINSGGDIISYADSVKGRFTISRDNAKNTLYLQMNSLKPEDTAVYYCAKSPIVRTYGGYDYWGQGTQVTVSS
B9: SVG19 (VHH, not shown: large carriers)
VHH: QVQLQQSGGGLVQPGGSLRLSCAASGFTFSSYAMSWVRQAPGKGLEWVSAINSGGGSTSYADSVKGRFTISRDNAKNTLYLQMNSLKPEDTAVYYCAKDFDPWGVGTGGYDYWGQGTQVTVSS
B10: SVG06 (VHH)
VHH: QVQLQESGGALVQPGGSLRLSCAASGFPFSAYDMTWVRQAPGQGLEWVSTIHKSGGITTYADSVKGRFTISRDNAKNTLYLQMNNLESEDTAVYYCAKALRAHNSDYVGRNALGSWGEGTLVTVSS

Legend:
[1] = biological target: horse IgG; assay: ELISA, coated antigen, E. coli supernatant (no SDA 0.255, 0.261)
[2] = biological target: human IgG; assay: ELISA, coated antigen, E. coli supernatant
[3] = biological target: horse IgG Fab fragment; assay: ELISA, coated antigen, E. coli supernatant
[4] = biological target: horse IgG Fc fragment; assay: ELISA, coated antigen, E. coli supernatant
[5] = biological target: dog IgG; assay: ELISA, coated antigen, E. coli supernatant
[6] = biological target: swine IgG; assay: ELISA, coated antigen, E. coli supernatant
[7] = biological target: guinea pig IgG; assay: ELISA, coated antigen, E. coli supernatant
[8] = biological target: bovine IgG; assay: ELISA, coated antigen, E. coli supernatant
[9] = biological target: dog IgG Fab fragment; assay: ELISA, coated antigen, E. coli supernatant
[10] = biological target: dog serum albumin (dog) (UniProt P49822); assay: ELISA, coated albumin, E. coli supernatant
Chain of dog serum albumin (dog) (P49822 25-608): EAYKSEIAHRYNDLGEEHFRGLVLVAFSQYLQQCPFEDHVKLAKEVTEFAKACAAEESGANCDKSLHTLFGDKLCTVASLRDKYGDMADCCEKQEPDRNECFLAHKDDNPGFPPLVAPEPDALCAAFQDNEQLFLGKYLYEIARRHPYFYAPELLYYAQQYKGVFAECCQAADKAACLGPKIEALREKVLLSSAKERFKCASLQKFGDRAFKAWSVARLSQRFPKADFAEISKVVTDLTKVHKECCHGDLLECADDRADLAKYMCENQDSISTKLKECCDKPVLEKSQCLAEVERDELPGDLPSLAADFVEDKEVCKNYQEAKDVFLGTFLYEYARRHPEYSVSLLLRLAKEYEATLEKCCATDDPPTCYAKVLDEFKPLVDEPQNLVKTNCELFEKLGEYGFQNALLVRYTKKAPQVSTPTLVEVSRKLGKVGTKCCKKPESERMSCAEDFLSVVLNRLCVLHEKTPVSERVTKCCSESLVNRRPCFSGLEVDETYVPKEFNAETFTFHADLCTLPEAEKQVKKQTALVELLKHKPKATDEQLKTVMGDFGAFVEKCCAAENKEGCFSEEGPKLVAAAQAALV

[11] = biological target: horse serum albumin (horse) (UniProt P35747); assay: ELISA, coated albumin, E. coli supernatant
Chain of horse serum albumin (horse) (P35747 25-607): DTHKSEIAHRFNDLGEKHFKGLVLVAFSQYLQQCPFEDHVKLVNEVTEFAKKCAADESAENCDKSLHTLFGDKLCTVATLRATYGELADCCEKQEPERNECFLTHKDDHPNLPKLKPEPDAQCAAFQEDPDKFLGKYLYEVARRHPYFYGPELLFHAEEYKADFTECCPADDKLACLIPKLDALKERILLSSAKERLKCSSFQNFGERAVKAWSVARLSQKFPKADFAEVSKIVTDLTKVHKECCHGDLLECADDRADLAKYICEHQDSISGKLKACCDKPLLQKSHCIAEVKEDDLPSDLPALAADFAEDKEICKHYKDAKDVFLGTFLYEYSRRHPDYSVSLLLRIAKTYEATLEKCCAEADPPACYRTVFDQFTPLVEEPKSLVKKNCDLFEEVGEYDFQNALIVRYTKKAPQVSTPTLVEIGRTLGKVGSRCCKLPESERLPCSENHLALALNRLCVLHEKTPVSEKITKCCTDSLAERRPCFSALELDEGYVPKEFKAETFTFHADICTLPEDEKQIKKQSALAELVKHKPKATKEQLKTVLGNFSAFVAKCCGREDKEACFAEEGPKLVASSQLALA

[12] = biological target: human serum albumin (human) (UniProt P02768); assay: ELISA, coated albumin, E. coli supernatant

| Binder | absorbance at 450 nm [1] | absorbance at 450 nm [2] | absorbance at 450 nm [3] | absorbance at 450 nm [4] | absorbance at 450 nm [5] | absorbance at 450 nm [6] | absorbance at 450 nm [7] | absorbance at 450 nm [8] | absorbance at 450 nm [9] | absorbance at 450 nm [10] | absorbance at 450 nm [11] | absorbance at 450 nm [12] |
| --- | --- | --- | --- | --- | --- | --- | --- | --- | --- | --- | --- | --- |
| B1 | 0.26 A450 | 0.073 A450 | 0.056 A450 | 0.072 A450 | 1.74 A450 | 0.092 A450 | 0.068 A450 | 0.062 A450 | 0.061 A450 | – | – | – |
| B2 | 0.765 A450 | 0.084 A450 | 0.06 A450 | 1.67 A450 | 1.74 A450 | 0.341 A450 | 0.068 A450 | 0.075 A450 | 0.074 A450 | – | – | – |
| B3 | 1.1 A450 | 0.076 A450 | 0.057 A450 | 0.476 A450 | 0.07 A450 | 0.075 A450 | 0.063 A450 | 0.061 A450 | 0.054 A450 | – | – | – |
| B4 | 0.401 A450 | 0.17 A450 | 0.152 A450 | 0.099 A450 | 0.479 A450 | 0.103 A450 | 0.249 A450 | 0.121 A450 | 0.454 A450 | – | – | – |
| B5 | – | – | – | – | – | – | – | – | – | 1.53 A450 | – | – |
| B6 | – | – | – | – | – | – | – | – | – | 1.77 A450 | 2 A450 | 0.057 A450 |
| B7 | 0.436 A450 | 0.524 A450 | 0.222 A450 | 0.097 A450 | 0.693 A450 | 0.195 A450 | 0.579 A450 | 0.272 A450 | 0.59 A450 | – | – | – |
| B8 | 0.478 A450 | 0.096 A450 | 0.32 A450 | 0.072 A450 | 1 A450 | 0.097 A450 | 0.174 A450 | 0.124 A450 | 1.36 A450 | – | – | – |
| B9 | 0.681 A450 | 0.309 A450 | 0.472 A450 | 0.079 A450 | 1.02 A450 | 0.146 A450 | 0.435 A450 | 0.453 A450 | 1.22 A450 | – | – | – |
| B10 | 0.325 A450 | 0.365 A450 | 0.089 A450 | 0.073 A450 | 0.277 A450 | 0.131 A450 | 0.204 A450 | 0.172 A450 | 0.178 A450 | – | – | – |
